Experimental data as given in patent US20190252037A1.
Like-named read-outs stand apart in the source and are kept apart here.

Columns and labels:
[1] = molecular target: 4-repeats (28 amino acids) Ser-5 phosphorylated CTD peptide, fluorescently labelled with FAM at the N-terminal end
[2] = molecular target: 2-repeats (14 amino acids) Ser-5 phosphorylated CTD peptide, fluorescently labelled with FAM at the N-terminal end
[3] = molecular target: heterotrimeric polymerase from influenza A/little yellow-shouldered bat/Guatemala/060/2010 (H17N10), wild type (Influenza A/little yellow-shouldered bat/Guatemala/060/2010 (H17N10))
[4] = molecular target: 4-repeats (28 amino acids) Ser-5 phosphorylated CTD peptide, fluorescently labelled with FAM at the N-terminal end; remark: listed apart in the source
[5] = molecular target: 4-repeats (28 amino acids) Ser-5 phosphorylated CTD peptide, fluorescently labelled with FAM at the N-terminal end; remark: listed apart in the source
[6] = molecular target: 2-repeats (14 amino acids) Ser-5 phosphorylated CTD peptide, fluorescently labelled with FAM at the N-terminal end; remark: listed apart in the source
[7] = molecular target: 4-repeats non-phosphorylated CTD peptide, fluorescently labelled with FAM at the N-terminal end

Question: What does the source list for “heterotrimeric polymerase from human influenza B/Memphis/13/03, wild type (enzyme)”?
Answer: Kd [1]: 2900 nM; Kd [2]: 4200 nM

Question: For “Ser-5-phosphorylated 28-mer CTD peptide (four heptad repeats), not labelled”, which apparent KD (KD') [3] is on record?
Answer: Its apparent KD (KD') is 2700 nM.

Question: Which results are given for “heterotrimeric polymerase from influenza A/little yellow-shouldered bat/Guatemala/060/2010 (H17N10), wild type (enzyme)”?
Answer: Kd [4]: 800 nM; Kd [5]: 900 nM; Kd [6]: 6100 nM; Kd [7]: > 10000 nM
